The Immune Epitope Database (IEDB)

Assays:
[1] = biological target: HLA-B*39:01; experiment: IEDB peptide-MHC binding, purified MHC/direct/fluorescence; filed as Kd, often an IC50 or EC50 that approximates it; ≥ and ≤ were set here for values at or beyond the usual limits of such assays; details: source organism: Mycobacterium tuberculosis str. Haarlem
[2] = biological target: HLA-A*26:01; experiment: as above; details: source organism: Mycobacterium tuberculosis str. Haarlem
[3] = biological target: HLA-A*29:02; experiment: as above; details: source organism: Mycobacterium tuberculosis str. Haarlem
[4] = biological target: HLA-A*02:01; experiment: as above; details: source organism: Mycobacterium tuberculosis str. Haarlem
[5] = biological target: HLA-A*02:12; experiment: as above; details: source organism: Mycobacterium tuberculosis str. Haarlem
[6] = biological target: HLA-B*57:01; experiment: as above; details: source organism: Mycobacterium tuberculosis str. Haarlem
[7] = biological target: HLA-B*27:03; experiment: as above; details: source organism: Mycobacterium tuberculosis str. Haarlem
[8] = biological target: HLA-B*18:01; experiment: as above; details: source organism: Mycobacterium tuberculosis str. Haarlem
[9] = biological target: HLA-A*24:03; experiment: as above; details: source organism: Mycobacterium tuberculosis str. Haarlem
[10] = biological target: HLA-A*03:01; experiment: as above; details: source organism: Mycobacterium tuberculosis str. Haarlem
[11] = biological target: HLA-B*51:01; experiment: as above; details: source organism: Mycobacterium tuberculosis str. Haarlem
[12] = biological target: HLA-A*02:06; experiment: as above; details: source organism: Mycobacterium tuberculosis str. Haarlem
[13] = biological target: HLA-B*46:01; experiment: as above; details: source organism: Mycobacterium tuberculosis str. Haarlem
[14] = biological target: HLA-A*23:01; experiment: IEDB peptide-MHC binding, purified MHC/competitive/fluorescence; filed as Kd, often an IC50 or EC50 that approximates it; ≥ and ≤ were set here for values at or beyond the usual limits of such assays; details: source organism: Mycobacterium tuberculosis variant bovis BCG str. Pasteur 1173P2
[15] = biological target: HLA-B*44:02; experiment: as above; details: source organism: Mycobacterium tuberculosis variant bovis BCG str. Pasteur 1173P2
[16] = biological target: HLA-B*53:01; experiment: as above; details: source organism: Mycobacterium tuberculosis variant bovis BCG str. Pasteur 1173P2
[17] = biological target: HLA-A*30:02; experiment: as above; details: source organism: Mycobacterium tuberculosis variant bovis BCG str. Pasteur 1173P2
[18] = biological target: HLA-B*58:01; experiment: as above; details: source organism: Mycobacterium tuberculosis variant bovis BCG str. Pasteur 1173P2
[19] = biological target: HLA-B*40:01; experiment: as above; details: source organism: Mycobacterium tuberculosis variant bovis BCG str. Pasteur 1173P2
[20] = biological target: HLA-A*11:01; experiment: as above; details: source organism: Mycobacterium tuberculosis variant bovis BCG str. Pasteur 1173P2
[21] = biological target: HLA-A*01:01; experiment: as above; details: source organism: Mycobacterium tuberculosis variant bovis BCG str. Pasteur 1173P2
[22] = biological target: HLA-B*08:01; experiment: as above; details: source organism: Mycobacterium tuberculosis variant bovis BCG str. Pasteur 1173P2
[23] = biological target: HLA-A*30:01; experiment: as above; details: source organism: Mycobacterium tuberculosis variant bovis BCG str. Pasteur 1173P2
[24] = biological target: HLA-B*14:02; experiment: as above; details: source organism: Mycobacterium tuberculosis variant bovis BCG str. Pasteur 1173P2
[25] = biological target: HLA-A*66:01; experiment: as above; details: source organism: Mycobacterium tuberculosis variant bovis BCG str. Pasteur 1173P2
[26] = biological target: HLA-B*27:05; experiment: as above; details: source organism: Mycobacterium tuberculosis variant bovis BCG str. Pasteur 1173P2

Question: What does the source list for RVACRDVEV?
Answer: Kd [1]: ≥ 20 µM; Kd [2]: ≥ 20 µM; Kd [3]: ≥ 20 µM; Kd [4]: 0.254 µM; Kd [5]: 0.032 µM; Kd [6]: ≥ 20 µM; Kd [7]: ≥ 20 µM; Kd [8]: ≥ 20 µM; Kd [9]: ≥ 20 µM; Kd [10]: ≥ 20 µM; Kd [11]: ≥ 20 µM; Kd [12]: 0.002 µM; Kd [13]: ≥ 20 µM; Kd [14]: ≥ 5 µM; Kd [15]: ≥ 5 µM; Kd [16]: ≥ 5 µM; Kd [17]: ≥ 5 µM; Kd [18]: ≥ 5 µM; Kd [19]: ≥ 5 µM; Kd [20]: ≥ 5 µM; Kd [21]: ≥ 5 µM; Kd [22]: ≥ 5 µM; Kd [23]: ≥ 5 µM; Kd [24]: 3 µM; Kd [25]: ≥ 5 µM; Kd [26]: ≥ 5 µM
